Laboratory results taken from patent US6479032 (DIATIDE, dated 2002).
One block for each binder: values may come before it. Starred links: 1 amine or outer side, 2 acyl side, 3 side chain; linkers in the order of their positions; H or OH if unused. Positions of bridges follow the written chain, without caps; N, C: chain ends. Non-standard residues stand in square brackets, D forms with d. Groups on a side chain read outwards from the residue. No end group written: not given here. Hhc = homohomocysteine, O=C([C@H](CCCS[*:3])N[*:1])[*:2]; εLys = N[C@@H](CCCCN[*:1])C(=O)[*:2]; Asu = N[C@@H](CCCCCC(=O)O)C(=O)O; hCys = N[C@@H](CCS)C(=O)O

How the values were obtained:
[1] = target: T1, CT receptor of human breast tumor cell lines T-47D and MCF-7 (human, UniProt P30988 25-474); experiment: displacement of 125I-salmon CT, whole T-47D cells
T1 construct: whole, on cells; Native receptor; also called calcitonin receptor
T1 sequence (looked up): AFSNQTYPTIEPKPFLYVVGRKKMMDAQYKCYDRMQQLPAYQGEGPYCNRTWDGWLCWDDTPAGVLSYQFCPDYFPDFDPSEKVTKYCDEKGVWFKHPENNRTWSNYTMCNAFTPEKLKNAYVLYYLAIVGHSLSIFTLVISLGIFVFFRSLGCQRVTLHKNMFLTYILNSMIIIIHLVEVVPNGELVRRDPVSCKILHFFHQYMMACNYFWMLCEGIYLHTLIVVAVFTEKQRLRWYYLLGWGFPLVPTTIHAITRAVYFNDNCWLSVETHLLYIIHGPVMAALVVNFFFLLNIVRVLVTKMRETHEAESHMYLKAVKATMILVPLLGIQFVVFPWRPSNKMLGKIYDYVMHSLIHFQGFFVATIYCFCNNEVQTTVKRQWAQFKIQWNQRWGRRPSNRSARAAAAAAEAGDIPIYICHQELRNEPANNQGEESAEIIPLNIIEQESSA
Text: (§1) Assays using microsomal membrane fractions of rat brain and T47D cells (obtained from the American Type Culture Collection, Rockville, Md., ATCC Accession No. HTB-133) were used to identify analogs with high affinity for the CT receptor according to the method of Fisher et al. (1977, *British J. Cancer* 35: 777–784). Briefly, tissue was minced and homogenized. The membranes were washed several times, assayed for protein content and used in the binding assay. […] Both uncomplexed and ReO complexed reagents were tested.
(§2) Similar experiments were performed with additional peptide reagents within the scope of the invention, using whole cells. Binding was determined as described above.

[2] = target: T1, CT receptor of human breast tumor cell …; experiment: displacement of 125I-salmon CT, whole MCF-7 cells
Text: as §1, §2

[3] = target: T1, CT receptor of human breast tumor cell …; experiment: displacement of 125I-salmon CT, T-47D cell membranes
Text: as §1, §2

B1: CH2CO.SNLST.Cys.VLGKLSC(CH2CO.GGCK.amide)ELHKLQTYPRTNTGSGTP.amide•ReO (peptide)
peptide: {CH2CO}-SNLSTCVLGKLSC([CH2CO-Gly-Gly-Cys-Lys-NH2])ELHKLQTYPRTNTGSGTP-NH2
modifications: thioether N-6; also: ReO complex
notes: Oxorhenium complex; also called Peptide 12 ReO complex
IC50 [1]: 1 nM
IC50 [2]: 5.2 nM

B2: CH2CO.SNLST.Cys.VLGKLSC(CH2CO.(ε-K)GCE.amide)ELHKLQTYPRTNTGSGTP.amide•ReO (peptide)
peptide: {CH2CO}-SNLSTCVLGKLSC([CH2CO-εLys-Gly-Cys-Glu-NH2])ELHKLQTYPRTNTGSGTP-NH2
modifications: thioether N-6; also: ReO complex
notes: Oxorhenium complex; also called Peptide 14 ReO complex
IC50 [1]: 2.6 nM
IC50 [2]: 1.9 nM

B3: CH2CO.SNLST.Cys.VLGKLSC(CH2CO.(β-Dap)KCK.amide)ELHKLQTYPRTNTGSGTP.amide•ReO (peptide)
peptide: {CH2CO}-SNLSTCVLGKLSC([CH2CO-βDap-Lys-Cys-Lys-NH2])ELHKLQTYPRTNTGSGTP-NH2
modifications: thioether N-6; also: ReO complex
notes: Oxorhenium complex; also called Peptide 13 ReO complex
IC50 [1]: 2.9 nM

Binder: {CH2CO}-SNLST[Hhc]VLGKLSCELHKLQTYPRTNTGSGTP-NH2 (thioether N-6, also called Peptide 3) [CH2CO.SNLST.Hhc.VLGKLSCELHKLQTYPRTNTGSGTP.amide]
IC50 [3]: 1.6 nM

B8: CSNLSTCVLGKLSQELHKLQTYPRTNTGSGTP-NH2 (salmon calcitonin) (ligand)
peptide: CSNLSTCVLGKLSQELHKLQTYPRTNTGSGTP-NH2
modifications: disulfide 1-7
notes: Unlabeled salmon calcitonin, bought (Sigma); also called salmon CT; sCT
IC50 [2]: 12.3 nM

B9: SNLST.Asu.VLGKLSC(CH2CO.(β-Dap)KCK.amide)ELHKLQTYPRTNTGSGTP.amide•ReO (peptide)
peptide: SNLST[Asu]VLGKLSC([CH2CO-βDap-Lys-Cys-Lys-NH2])ELHKLQTYPRTNTGSGTP-NH2
modifications: lactam N-6; also: ReO complex of chelator on Cys13
notes: Oxorhenium complex; also called Peptide 16 ReO complex
IC50 [1]: 2.7 nM
IC50 [2]: 8 nM

Binder: {CH2CO}-SNLST[Hhc]VLGKLSC([CH2CO-Gly-Gly-Cys-Lys-NH2])ELHKLQTYPRTNTGSGTP-NH2 (thioether N-6, also called Peptide 4) [CH2CO.SNLST.Hhc.VLGKLSC(CH2CO.GGCK.amide)ELHKLQTYPRTNTGSGTP.amide]
IC50 [3]: 2.6 nM

Second part, the binder after the results:

IC50 [1]: 0.55 nM
IC50 [2]: 7 nM
B4: SNLST.Asu.VLGKLSC(CH2CO.(β-Dap)KCK.amide)ELHKLQTYPRTDVGAGTP.amide•ReO (peptide)
peptide: SNLST[Asu]VLGKLSC([CH2CO-βDap-Lys-Cys-Lys-NH2])ELHKLQTYPRTDVGAGTP-NH2
modifications: lactam N-6; also: ReO complex of chelator on Cys13
notes: Oxorhenium complex; also called Peptide 18 ReO complex

IC50 [1]: 0.33 nM
IC50 [2]: 3.3 nM
B5: CH2CO.SNLST.Hhc.VLGKLSC(CH2CO.(ε-K)GCE.amide)ELHKLQTYPRTNTGSGTP.amide•ReO (peptide)
peptide: {CH2CO}-SNLST[Hhc]VLGKLSC([CH2CO-εLys-Gly-Cys-Glu-NH2])ELHKLQTYPRTNTGSGTP-NH2
modifications: thioether N-6; also: ReO complex of chelator on Cys13
notes: Oxorhenium complex; also called Peptide 6 ReO complex

IC50 [1]: 0.84 nM
B6: CH2CO.SNLST.Hcy.VLGKLSC(CH2CO.(β-Dap)KCK.amide)ELHKLQTYPRTNTGSGTP.amide•ReO (peptide)
peptide: {CH2CO}-SNLST[hCys]VLGKLSC([CH2CO-βDap-Lys-Cys-Lys-NH2])ELHKLQTYPRTNTGSGTP-NH2
modifications: thioether N-6; also: ReO complex of chelator on Cys13
notes: Oxorhenium complex; also called Peptide 9 ReO complex

IC50 [1]: 0.89 nM
B7: CH2CO.SNLST.Hcy.VLGKLSC(CH2CO.(ε-K)GCE.amide)ELHKLQTYPRTNTGSGTP.amide•ReO (peptide)
peptide: {CH2CO}-SNLST[hCys]VLGKLSC([CH2CO-εLys-Gly-Cys-Glu-NH2])ELHKLQTYPRTNTGSGTP-NH2
modifications: thioether N-6; also: ReO complex of chelator on Cys13
notes: Oxorhenium complex; also called Peptide 10 ReO complex

IC50 [1]: 0.42 nM
IC50 [2]: 5.8 nM
Binder: {CH2CO}-SNLST[Hhc]VLGKLSC([CH2CO-βDap-Lys-Cys-Lys-NH2])ELHKLQTYPRTNTGSGTP-NH2 (thioether N-6, also called Peptide 5) [CH2CO.SNLST.Hhc.VLGKLSC(CH2CO.(β-Dap)KCK.amide)ELHKLQTYPRTNTGSGTP.amide]

IC50 [1]: 0.83 nM
IC50 [2]: 4.8 nM
B10: CH2CO.SNLST.Hcy.VLGKLSC(CH2CO.GGCK.amide)ELHKLQTYPRTNTGSGTP.amide•ReO (peptide)
peptide: {CH2CO}-SNLST[hCys]VLGKLSC([CH2CO-Gly-Gly-Cys-Lys-NH2])ELHKLQTYPRTNTGSGTP-NH2
modifications: thioether N-6; also: ReO complex of chelator on Cys13
notes: Oxorhenium complex; also called Peptide 8 ReO complex
